The record followed here is the Immune Epitope Database (IEDB).

As usually defined, the pIC50 is the negative decadic logarithm of the IC50, by convention in mol/L.

The target of the experiment is HLA-A*02:01. The experiment can be described thus: IEDB peptide-MHC binding, purified MHC/competitive/radioactivity; ≥ and ≤ were set here for values at or beyond the usual limits of such assays.
Where [1] appears, read: source organism: Vaccinia virus WR.
Where [2] appears, read: source organism: Mammarenavirus whitewaterense.
Where [3] appears, read: source organism: Mammarenavirus brazilense.
Setting [4] is: source organism: Mammarenavirus machupoense.

pIC50: −log10 of the molar value.

AALGGSVNI: the pIC50 under setting [1] is 5.84. AAMYQYIFL: the pIC50 under setting [1] was 6.16. On the same count and under the same terms, for AASSTHRKV the value was 5.58; for AIFTDASTV, 6.16. Regarding AIIAIVFVFI, the pIC50 under setting [1] was 6.03. AIIDIEPDL: under setting [1], the pIC50 is 6.52. On the same count and under the same terms, for AIIGLCAYA the value was 7.09. AIIPLSASV: the pIC50 under setting [1] was 7.85.

AIMESDSFL: under setting [1], the pIC50 is 6.76. Consider AITDAAVAV, for which the pIC50 under setting [1] was 5.83. In the case of AITDAAVAVA, under setting [1], the pIC50 is 5.42. With AIYKLGSSI, under setting [1], the pIC50 is 5.96. As for AIYSAILLLV, under setting [1], the pIC50 was 7.28. On the same count and under the same terms, for ALAKNASEL the value was 7.14; for ALATFTVNI, 9.22; for ALFGIKLPAL, 8.60. As to ALGGSVNIWA, the pIC50 under setting [1] is 5.93.

In the case of ALIANIHNHM, the pIC50 under setting [1] was 6.93. With ALIAVSIISI, under setting [2], the pIC50 is 6.61. Regarding ALIAVSLIA, the pIC50 under setting [3] was 5.96. Turning to ALIAVSLIAA, the pIC50 under setting [3] was 7.55. ALLPLSLLFL: the pIC50 under setting [4] was 8.33. Regarding ALLSRFFNM, under setting [1], the pIC50 was 9.21. Same read-out and setting: for ALLVATDPDA the value was 6.22; for ALMAITKNV, 8.08.

As to ALMDCIMFDA, the pIC50 (source organism: Mammarenavirus lassaense) is 8.96.

For ALMRRIAVV, the pIC50 under setting [1] is 8.74.

As for ALNHLVLSL, the pIC50 under setting [1] is 9.35. As for ALNIALIAV, the pIC50 under setting [2] is 7.72. For the sequence ALPHIIDEV, under “source organism: Mammarenavirus choriomeningitidis”, the pIC50 was 7.24.

As for ALQNVMISI, under setting [1], the pIC50 was 6.36. ALTIACMTV: under setting [4], the pIC50 was 6.48.

On to ALTIMGVIFL, for which, under setting [1], the pIC50 was 6.74. Same read-out and setting: to ALTNAQFFV belongs 8.89. As for ALTSLGLLYT, the pIC50 under setting [3] is 6.23.

For ALVALVITI, under setting [1], the pIC50 was 8.72. For the sequence ALVASLNPNM, under setting [1], the pIC50 was 5.88.

Turning to ALVAVSLIA, the pIC50 under setting [4] is 5.43. On to ALVAVSLIAI, for which, where the note is “source organism: Mammarenavirus juninense”, the pIC50 was 6.49.

As for ALWIPDLFM, the pIC50 under setting [1] was 9.85. Take AMFTAALNI: under setting [1], the pIC50 is 8.62.

As to AMFTTMYNI, the pIC50 under setting [1] is 8.55. Same read-out and setting: to AMIELCGAFL belongs 9.11. Take AMPGVLSYVI: the negative logarithm of the IC50 (pIC50) under setting [4] is 5.61. For AMTAFFGEL, the pIC50 under setting [1] is 7.30.

As to ATNIFPFFV, the pIC50 under setting [1] was 7.77. On the same count and under the same terms, to ATYHIIIVAL belongs 5.94; to AVISKVTYSL, 5.32; to AVKDKNWTV, 5.74.

In the case of AVLLTYFCFV, the pIC50 under setting [1] is 8.47.

For AVNEEWLTAV, the pIC50 under setting [1] was 6.41. For the sequence AVTKTDGIPI, under setting [1], the pIC50 was 5.83. Same read-out and setting: for AVVYSTCTV the value was 6.98; for CIDGKWNPV, 8.08; for CIDGKWNPVL, 5.73.

For CISQHQHLA, the pIC50 under setting [1] is 6.35. The same measure, in the same setting: for CLCSFHNDA the value was 5.38; for CLCSFHNDAI, 5.54. With CLKDIIDFL, the pIC50 under setting [1] is 6.17. Same read-out and setting: to CLVVSTKGDV belongs 6.17; to CMAFTIPSI, 9.05. CMINDTHFLL: under setting [2], the pIC50 was 7.18. Turning to CMSANEAAI, the pIC50 under setting [1] was 7.80.

In the case of CMVNHSTYYV, the pIC50 under setting [3] was 7.14.

For the sequence CQQKCDMPSL, the pIC50 under setting [1] is 5.62. Same read-out and setting: to CTANSWNVI belongs 6.10; to CVLPAVVYST, 6.52; to CVLTTIDGV, 6.53. On to DAIIDIEPDL, for which, under setting [1], the pIC50 is 5.64. Consider DALATFTVNI, for which the pIC50 under setting [1] was 6.75.

Take DAMPGVLSYV: the pIC50 under setting [4] is 7.36. For DASLMDMITL, the pIC50 under setting [1] is 6.69. Consider DIIDFLEGA, for which the pIC50 under setting [1] is 6.35. The same measure, in the same setting: to DLLSYYVVYV belongs 9.35; to DLYDYITRI, 5.99; to DMIDNLNIV, 5.63. Still for that read-out and setting: for DMMSLNLTIV the value was 5.55. Consider DMTKVDVEL, for which, under setting [1], the pIC50 is 5.40. For DTVFDYYVL, the pIC50 under setting [1] is 7.27. In the case of DTWGSDGNPI, the pIC50 under setting [1] is 5.94.

Take DVVILLLSSV: the pIC50 under setting [1] is 6.04.

In the case of EAAITDAAV, the pIC50 under setting [1] is 5.64. Consider EAINIALIAV, for which, under setting [3], the pIC50 is 5.83.

As for EALNIALVAV, the pIC50 under setting [4] was 6.47. Take EATYHIIIVA: the pIC50 under setting [1] is 5.67. Same read-out and setting: for EIIPSSIPV the value was 5.33; for EILGIAHLL, 5.36; for ELIAFSSGTV, 6.00.

Regarding ELIKELTTL, the negative-log IC50 (pIC50) under setting [1] is 6.87.

Regarding ELKETLLHV, the pIC50 under setting [1] was 5.36. As to ELMYIFAAL, the pIC50 under setting [1] is 6.97. As for ELQKFSFKI, the pIC50 under setting [1] is 6.78. The same measure, in the same setting: to ELVFIKPPLI belongs 5.48; to ELVRYIELV, 6.54. As to ELYNKPLYEV, the pIC50 under setting [1] is 9.10. Same read-out and setting: for EQEFLTAAL the value was 7.77; for ETIGNQLYL, 5.45.
